One series relates to Oc1ccc(Cl)cc1O. The series is described as follows: spectrophotometric oxidation assay, nonlinear regression. In kind it is biochemical, Thermothelomyces thermophilus. Conditions: 0.1 M sodium phosphate pH 7, 40°C, 440 nm, 0 to 5 mM substrate. An excerpt: (§1) spectrophotometric oxidation assay, nonlinear regression on TtPPO
Substrate in the series “purified protein”: COc1ccccc1O
The series can be described thus: purified protein. Conditions: 0.1 M sodium phosphate pH 7, 40°C, 0 to 15 mM substrate.

Substrate in series [1]: Oc1cc(O)c2c(c1)O[C@H](c1ccc(O)c(O)c1)[C@@H](O)C2
The series is described as follows: spectrophotometric oxidation assay, nonlinear regression. Conditions: 0.1 M sodium phosphate pH 7, 40°C, 440 nm, 0 to 10 mM substrate (Km lies above tested range). In kind it is biochemical, Thermothelomyces thermophilus.
Text: as §1

Substrate in series [2]: COc1cc(C=O)ccc1O
The description is as above. Format: biochemical, Thermothelomyces thermophilus. The conditions noted are these: 0.1 M sodium phosphate pH 7, 40°C, 0 to 5 mM substrate.
Text: as §1

Substrate in series [3]: Oc1ccccc1O
Described as above. Format: biochemical, Thermothelomyces thermophilus. Conditions: 0.1 M sodium phosphate pH 7, 40°C, 0 to 60 mM substrate.
Text: as §1

Substrate in series [4]: Oc1ccc(O)cc1
Described as above. In kind it is biochemical, Thermothelomyces thermophilus. The conditions noted are these: 0.1 M sodium phosphate pH 7, 40°C, 480 nm, 0 to 70 mM substrate.
Text: as §1

Substrate in series [5]: N[C@@H](Cc1ccc(O)c(O)c1)C(=O)O
The series is described as above. In kind it is biochemical, Thermothelomyces thermophilus. Conditions: 0.1 M sodium phosphate pH 7, 40°C, 475 nm, 0 to 7 mM substrate.
Text: as §1

As usually defined, the kcat is the number of substrate molecules converted per active site and unit of time at saturation. In general, kcat/Km refers to the second-order rate constant that governs catalysis at low substrate concentration. For the molecule “TtPPO (Thermothelomyces thermophilus ATCC 42464)”, in the series with Oc1ccc(Cl)cc1O, the Km was 1.6 (0.1) mM, the kcat came to 5.69 s⁻¹ and the kcat/Km came to 3490 M⁻¹ s⁻¹.

B1: TtPPO (Thermothelomyces thermophilus ATCC 42464) (protein)
chain: RCSSDAPPPAPVGDDLTEPKELTDLFEKAKKAVIDRLHEDEKALRARGEAPRCTADKLIFRREYGSLSKDERLAYVNAVKCLQSKPPRTPASVAPGARSRFDDFVVVHIQQTLDIHYSGIFQAWHRWFVYQYEKALRDECGYTGYQPYWDWPKYASAPQDSPLFNGDPYSLGGNGEYVPHDGPVIVPPEGVSGGNISLPAGVGGGFVRTGPFANMTVNLGPVGGLADTAPGPQGGLGYNPRGLKRDLGGAMNTRYANYTTVLRLLTQPDVDAFRTVSEGVPYTVEIGPHGGIHYTIGGDPGGDLFTSPGDPAFWVHHAQMDRVWATWQALGLLPPADGGDPDPARRYTDLGKGDYAHRTWQNSPPSPFAELSDVIDMGYAAPSTTIGAVMSTTEGELCYFYL
notes: secreted by Pichia pastoris X-33, glycosylated; IMAC
On to B1, for which the Km is 4.2 (0.6) mM in the series “purified protein”; 31.0 (12.9) mM in series [1]; 2.0 (0.1) mM in series [2]; 27.0 (2.8) mM in series [3]; 54.4 (5.5) mM in series [4]; 2.2 (0.6) mM in series [5]. Moreover, the catalytic constant (kcat) in the series “purified protein” came out at 2.91 s⁻¹; in series [1] it was 40.5 s⁻¹; in series [2] it was 1.92 s⁻¹; in series [3], 2.19 s⁻¹; in series [4], 1.69 s⁻¹; in series [5], 0.108 s⁻¹. Besides, the kcat/Km in the series “purified protein” was determined as 690 M⁻¹ s⁻¹; in series [1], 1300 M⁻¹ s⁻¹; in series [2], 987 M⁻¹ s⁻¹; in series [3], 81.7 M⁻¹ s⁻¹; in series [4], 31.7 M⁻¹ s⁻¹; in series [5], 50 M⁻¹ s⁻¹.

The values above are taken from article PMC6238066, “Versatile Fungal Polyphenol Oxidase with Chlorophenol Bioremediation Potential: Characterization and Protein Engineering” (Applied and Environmental Microbiology, 2018).
